Data set [1] concerns the target HD1 (MBP-HD1);GHD8 (His-GHD8, NF-YB) (Oryza sativa (rice);Oryza sativa (rice), UniProt Q9FDX8;Q0J7P4 1-395;1-297, |). In words: EMSA; 5 mM Tris pH 7.5, 25 mM KCl, 0.5 mM DTT, 5 mM MgCl2, 2.5% glycerol, 0.05% NP-40, 50 ng/uL poly(dI-dC), room temperature 20 min, 5% polyacrylamide gel. The note with it: protein: recombinant;recombinant; tags: MBP (pMAL-c2X; text says MBP 'at the down-stream');N-terminal thioredoxin-His (pET-32); copies: 1;1; label: 3'-biotin; blunt. (In general: In EMSA bound probe runs differently from free probe, usually more slowly.)

Data set [2] concerns the target HD1 (MBP-HD1);GHD8 (His-GHD8, NF-YB);OsHAP5b (His-HAP5b, NF-YC) (Oryza sativa (rice);Oryza sativa …, UniProt Q9FDX8;Q0J7P4;Q655V5 1-395;1-297;1-250, ||). As to the kind of experiment: EMSA; considerably stronger signal than HD1 alone; 50x/100x unlabeled F1 competitor; 5 mM Tris pH 7.5, 25 mM KCl, 0.5 mM DTT, 5 mM MgCl2, 2.5% glycerol, 0.05% NP-40, 50 ng/uL poly(dI-dC), room temperature 20 min, 5% polyacrylamide gel. The settings on record: protein: recombinant;recombinant;recombinant; tags: MBP (pMAL-c2X); copies: 1;1;1; label: 3'-biotin; blunt.

The record followed here is publication PMC6825352, “Ghd8 controls rice photoperiod sensitivity by forming a complex that interacts with Ghd7”.

HD1 (MBP-HD1);GHD8 (His-GHD8, NF-YB);OsHAP5b (His-HAP5b, NF-YC), sequence (Q9FDX8 whole entry, chain 1 of 3): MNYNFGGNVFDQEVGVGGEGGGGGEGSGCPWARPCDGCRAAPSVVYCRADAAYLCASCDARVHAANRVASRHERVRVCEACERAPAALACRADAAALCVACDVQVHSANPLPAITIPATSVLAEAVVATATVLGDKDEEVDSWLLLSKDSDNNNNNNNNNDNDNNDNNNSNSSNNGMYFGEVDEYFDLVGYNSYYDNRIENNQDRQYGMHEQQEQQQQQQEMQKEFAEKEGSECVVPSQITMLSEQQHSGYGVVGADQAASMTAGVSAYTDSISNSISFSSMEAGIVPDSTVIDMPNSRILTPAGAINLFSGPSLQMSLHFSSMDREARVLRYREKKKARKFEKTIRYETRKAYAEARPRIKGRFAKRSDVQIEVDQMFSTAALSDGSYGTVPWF
HD1 (MBP-HD1);GHD8 (His-GHD8, NF-YB);OsHAP5b (His-HAP5b, NF-YC), sequence (Q0J7P4 whole entry, chain 2 of 3): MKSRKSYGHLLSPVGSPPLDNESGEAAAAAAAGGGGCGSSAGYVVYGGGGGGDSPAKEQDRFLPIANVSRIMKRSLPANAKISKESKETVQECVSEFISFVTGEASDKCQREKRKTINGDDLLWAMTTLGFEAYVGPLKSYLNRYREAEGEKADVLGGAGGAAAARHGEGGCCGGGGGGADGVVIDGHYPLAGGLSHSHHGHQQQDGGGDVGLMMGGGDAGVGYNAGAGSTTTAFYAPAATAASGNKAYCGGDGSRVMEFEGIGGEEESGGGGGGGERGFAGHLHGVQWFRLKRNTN
HD1 (MBP-HD1);GHD8 (His-GHD8, NF-YB);OsHAP5b (His-HAP5b, NF-YC), sequence (Q655V5 whole entry, chain 3 of 3): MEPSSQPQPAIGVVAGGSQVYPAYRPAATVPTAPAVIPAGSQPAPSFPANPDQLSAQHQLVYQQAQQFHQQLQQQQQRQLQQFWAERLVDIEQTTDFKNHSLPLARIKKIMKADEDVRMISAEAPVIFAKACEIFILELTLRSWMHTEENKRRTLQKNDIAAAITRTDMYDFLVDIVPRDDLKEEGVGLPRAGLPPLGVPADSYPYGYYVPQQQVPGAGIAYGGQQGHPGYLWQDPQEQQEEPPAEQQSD
HD1 (MBP-HD1);GHD8 (His-GHD8, NF-YB), sequence (Q9FDX8 whole entry, chain 1 of 2): as the sequence (Q9FDX8 whole entry, chain 1 of 3) above
HD1 (MBP-HD1);GHD8 (His-GHD8, NF-YB), sequence (Q0J7P4 whole entry, chain 2 of 2): as the sequence (Q0J7P4 whole entry, chain 2 of 3) above

B1: F1 (dsDNA)
DNA 1: ATCTGGTTGCAATGGGGATGGCCAATGAGGAGTCG
DNA 2: CGACTCCTCATTGGCCATCCCCATTGCAACCAGAT
Consider B1, for which the binding result in data set [1] and in data set [2] was “binds” each time.
